{"source": "patent US6482605", "proteins": {"B1": {"name": "histidine-tagged PTP20 wild-type (6 histidine residues at the N-terminus), tetracycline-controlled expression in PC12 cells (protein)", "chain": "MHHHHHHSRQSDLVRSFLEQQEARDHRKGAILAREFSDIKARSVAWKTEGVCSTKAGSQQGNSKKNRYKDVVPYDETRVILSLLQEEGHGDYINANFIRGTDGSQAYIATQGPLPHTLLDFWRLVWEFGIKVILMACQETENGRRKCERYWAQEREPLQAGPFCITLTKETALTSDITLRTLQVTFQKESRPVHQLQYMSWPDHGVPSSSDHILTMVEEARCLQGLGPGPLCVHCSAGCGRTGVLCAVDYVRQLLLTQTIPPNFSLFEVVLEMRKQRPAAVQTEEQYRFLYHTVAQLFSRTLQNNSPLYQNLKENRAPICKDSSSLRTSSALPATSRPLGGVLRSISVPGPPTLPMADTYAVVQKRGASGSTGPGTRAPNSTDTPIYSQVAPRIQRPVSHTENAQGTTALGRVPADENPSGPDAYEEVTDGAQTGGLGFNLRIGRPKGPRDPPAEWTRV"}}, "biological_target": "EGF receptor (endogenous, in PC12 cell lysate)"}
{"protein": "B1", "values": [{"measurement": "tyrosine phosphorylation of EGF receptor upon EGF stimulation (precipitation, anti-phosphotyrosine blot)", "value": "Overexpression of PTP20 wt resulted in dramatic dephosphorylation of EGF receptor"}]}
